Reference: patent US20240383984A1 (Genentech, published 2024)

What was measured:
[1] = target: T1, human FcRH3 (full-length, on SVT2 cells) (human, UniProt Q96P31 18-734); experiment: flow cytometry, SVT2 cells
T1 construct: whole, on cells; also called SVT2-FcRH3
T1 sequence (looked up): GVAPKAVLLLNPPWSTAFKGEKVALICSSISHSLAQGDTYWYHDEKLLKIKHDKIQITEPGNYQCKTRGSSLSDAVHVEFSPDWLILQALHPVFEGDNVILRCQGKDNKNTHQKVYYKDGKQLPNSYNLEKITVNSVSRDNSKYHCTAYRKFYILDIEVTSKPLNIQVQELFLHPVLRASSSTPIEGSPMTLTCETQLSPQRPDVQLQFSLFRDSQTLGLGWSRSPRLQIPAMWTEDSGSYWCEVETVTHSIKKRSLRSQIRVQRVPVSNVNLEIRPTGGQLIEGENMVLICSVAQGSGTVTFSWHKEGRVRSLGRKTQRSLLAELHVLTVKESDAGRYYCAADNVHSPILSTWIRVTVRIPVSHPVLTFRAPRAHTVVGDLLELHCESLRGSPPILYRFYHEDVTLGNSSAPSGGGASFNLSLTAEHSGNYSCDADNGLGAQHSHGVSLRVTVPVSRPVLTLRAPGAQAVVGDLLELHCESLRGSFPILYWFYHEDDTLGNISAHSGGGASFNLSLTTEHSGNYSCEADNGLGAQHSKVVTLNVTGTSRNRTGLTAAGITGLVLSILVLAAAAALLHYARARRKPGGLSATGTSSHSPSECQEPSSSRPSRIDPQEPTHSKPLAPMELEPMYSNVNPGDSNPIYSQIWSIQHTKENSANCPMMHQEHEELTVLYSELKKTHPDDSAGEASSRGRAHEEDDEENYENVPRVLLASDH
Experimental: (§1) Human FcRH5, cyno FcRH5, human FcRH1, FcRH2, FcRH3, and FcRH4 transfected mouse SVT2 cells were used to test binding and cross-reactivity of FcRH5 TDBs. The method was carried out as follows. Cultured SVT2 cells were lifted using non-enzyme cell dissociation buffer (Sigma, #C5914). 1×10⁵ cells were suspended in 100 μL and incubated with FcRH5 TDBs at 3 μg/ml. […] Cells were washed twice with FACS buffer before flow cytometry analysis was carried out on a FACSCalibur.

[2] = target: T2, human FcRH5 (full-length, on cells) (human, UniProt Q96RD9 16-977); experiment: flow cytometry, SVT2 cells
T2 construct: Transfected SVT2/293 cells or endogenous expression (MOLP-2, primary cells); also called SVT2-FcRH5; SVT2-huFcRH5
T2 sequence: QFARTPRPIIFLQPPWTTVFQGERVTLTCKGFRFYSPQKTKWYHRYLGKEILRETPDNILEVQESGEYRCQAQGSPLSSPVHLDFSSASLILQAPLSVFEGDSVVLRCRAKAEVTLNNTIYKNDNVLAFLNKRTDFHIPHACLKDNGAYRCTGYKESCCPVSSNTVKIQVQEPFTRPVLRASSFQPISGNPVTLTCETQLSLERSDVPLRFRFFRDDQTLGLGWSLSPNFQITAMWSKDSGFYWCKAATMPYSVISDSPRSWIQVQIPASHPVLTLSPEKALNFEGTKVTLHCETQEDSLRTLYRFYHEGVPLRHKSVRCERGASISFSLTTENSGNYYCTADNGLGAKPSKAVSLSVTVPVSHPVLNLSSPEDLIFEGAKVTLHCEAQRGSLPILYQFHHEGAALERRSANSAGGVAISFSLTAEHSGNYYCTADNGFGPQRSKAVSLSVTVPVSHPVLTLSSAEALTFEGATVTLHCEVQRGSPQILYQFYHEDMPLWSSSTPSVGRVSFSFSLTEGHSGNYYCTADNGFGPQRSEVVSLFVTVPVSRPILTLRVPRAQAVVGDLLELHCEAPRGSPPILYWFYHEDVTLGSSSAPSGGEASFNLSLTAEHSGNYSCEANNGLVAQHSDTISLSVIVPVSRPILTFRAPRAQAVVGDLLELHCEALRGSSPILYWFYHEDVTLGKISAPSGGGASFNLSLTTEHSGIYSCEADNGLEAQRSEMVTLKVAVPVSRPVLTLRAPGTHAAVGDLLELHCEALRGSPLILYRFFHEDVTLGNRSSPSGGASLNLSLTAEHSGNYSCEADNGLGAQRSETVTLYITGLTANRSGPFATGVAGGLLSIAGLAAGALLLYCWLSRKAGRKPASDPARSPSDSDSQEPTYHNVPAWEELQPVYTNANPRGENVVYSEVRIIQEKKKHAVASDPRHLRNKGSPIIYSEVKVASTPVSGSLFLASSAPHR
Experimental: as §1

B1: hu1G7.v87/38E4.v1 TDB (bispecific antibody, V domains shown)
VH 1: EVQLVESGPGLVKPSETLSLTCTVSGFSLTRFGVHWVRQPPGKGLEWLGVIWRGGSTDYNAAFVSRLTISKDNSKNQVSLKLSSVTAADTAVYYCSNHYYGSSDYALDNWGQGTLVTVSS
VL 1: DIQMTQSPSSLSASVGDRVTITCKASQDVSNIVVWFQQKPGKSPKLLIYSASYRYTGVPSRFSGSGSGTDFTLTISSLQPEDFATYYCQQHYSSPYTFGQGTKVEIK
VH 2: EVQLVQSGAEVKKPGASVKVSCKASGFTFTSYYIHWVRQAPGQGLEWIGWIYPENDNTKYNEKFKDRVTITADTSTSTAYLELSSLRSEDTAVYYCARDGYSRYYFDYWGQGTLVTVSS
VL 2: DIVMTQSPDSLAVSLGERATINCKSSQSLLNSRTRKNYLAWYQQKPGQSPKLLIYWTSTRKSGVPDRFSGSGSGTDFTLTISSLQAEDVAVYYCKQSFILRTFGQGTKVEIK
notes: knob-into-hole TDB; also called 1G7.v87 TDB
binding result [1]: no binding
binding result [2]: binds
